# Patent publication US20170087188A1, “WNT INDUCED MOTILITY AND ENHANCED ENGRAFTMENT OF CELLS” (OTTAWA HOSPITAL RESEARCH INSTITUTE, priority 2014, published 2017)
# Entries after “also recorded” stand apart in the source; their conditions may differ.
# B1: Wnt7a: non-canonical Wnt polypeptide (R&D Systems) used to treat or load myogenic cells (protein, UniProt O00755 32-349, looked up)
# Protein Wnt-7a: LGASIICNKIPGLAPRQRAICQSRPDAIIVIGEGSQMGLDECQFQFRNGRWNCSALGERTVFGKELKVGSREAAFTYAIIAAGVAHAITAACTQGNLSDCGCDKEKQGQYHRDEGWKWGGCSADIRYGIGFAKVFVDAREIKQNARTLMNLHNNEAGRKILEENMKLECKCHGVSGSCTTKTCWTTLPQFRELGYVLKDKYNEAVHVEPVRASRNKRPTFLKIKKPLSYRKPMDTDLVYIEKSPNYCEEDPVTGSVGTQGRACNKTAPQASGCDLMCCGRGYNTHQYARVWQCNCKFHWCCYVKCNTCSERTEMYTCK
# Key:
# [1] = tested on: C2C12 cells; test: Scratch migration assay, C2C12 cells; format: cell-based; conditions: Mitomycin-C treated, 24 h, Wnt 100 ng/mL, vs Veh. or empty vector
# Experimental: (§1) Cellular polarization is indicative of increased motility (de Forges et al., 2012). Scratch assays were used to test whether Wnt7a and Fzd7 polarization affect cell motility. To exclude effects on the localization of cells arising from altered rates of proliferation, cells were treated with Mitomycin-C.
# (§2) Following plasmid transfection or application of Wnts (R&D Systems), the cells were treated with Mitomycin-C for 2 h (50 μg/mL). Subsequently, the monolayer of cells was scraped in a straight line. The plates were then extensively washed with culture medium and incubated for 24 h before analysis. Analysis was performed using DAPI staining after matching the reference points and enumeration of DAPI-stained nuclei in the scar was performed. Unless otherwise indicated, Wnt7a and Wnt3a were used at a concentration of 100 ng/mL in scratch assays. Monodansylcadaverine (MDC, 30432, Sigma) was used in scratch assays at a concentration of 50 μm.
# [2] = tested on: mouse primary myoblasts; test: Scratch migration assay, mouse primary myoblasts; format: cell-based
# Experimental: as §1
# Fzd7 deficient cells migrated 59% less compared to heterozygous myoblasts and expression of Fzd7-Flag in Fzd7 knockout myoblasts restored migration to normal levels (FIG. 2D). […] To investigate whether the stimulation of myoblast migration is dose dependent, different concentrations of Wnt7a and Wnt3a were tested for their effect on migration.
# as §2
# [3] = tested on: Rac1; test: Rac1 activation assay in mouse primary myoblasts; format: cell-based; conditions: Wnt7a overexpression (Wnt7a-HA retrovirus) vs empty virus
# Source text: (§3) Wnt7a signaling in satellite cells involves Rac1. Polarized peripheral Fzd7-tdTomato colocalized with GFP-Rac1 in C2C12 cells (FIG. 3A). It was hypothesized that the small GTPase Rac1 might also be involved in Wnt7a mediated cell polarization and migration. […] Various forms of Wnt signaling require Disheveled (Dvl) proteins.
# (§4) For co-immunoprecipitation (CoIP) experiments and the Rac1 activation assay, satellite cell-derived primary myoblasts were infected with retroviruses generated from empty pHAN or from pHAN-Wnt7a-HA (Kuroda et al., 2013). Dvl2 knockdown was performed with an ON-TARGETplus siRNA SMARTpool (L-040921-01, Thermo Fisher Scientific) (Wu et al., 2008) using Lipofectamine RNAiMAX (Life Technologies) according to the manufacturer's instructions. As a control for the knockdown, a non-silencing siRNA SMARTpool was used (D-001810-10, Thermo Fisher Scientific). Cell extracts were obtained through RIPA buffer lysis in the presence of a protease inhibitor cocktail (Nacalai). For CoIP of Rac1 with Dvl2, rabbit anti-Dvl2 antibody was coupled to Protein A Dynabeads (Life Technologies). Denaturing SDS-PAGE was performed using standard techniques. Rac1 activation assay was performed according to the manufacturer's instructions (Pierce).
# [4] = tested on: Rac1 association with Dvl2; test: Co-IP of Rac1 with Dvl2 in primary myoblasts; format: cell-based, mouse; conditions: Wnt7a stimulated (infected) primary myoblasts vs EV
# Source text: as §3, §4
# [5] = tested on: Fzd7; test: Subcellular distribution of Fzd7-YFP in primary myoblasts; format: cell-based; conditions: Wnt7a stimulated vs controls
# Experimental: The effect of Wnt7a treatment on the subcellular distribution of Fzd7 was tested. […] Furthermore, it was observed that myoblasts exposed to conditioned medium containing HA epitope tagged Wnt7a (Wnt7a-HA) quickly endocytosed this factor. After 3 h of incubation and several subsequent washing steps, endocytosed Wnt7a-HA was detectable for ≧72 h in intracellular structures in primary myoblasts (FIG. 4E) and C2C12 cells (FIG. 11E).
# [6] = tested on: primary myoblasts; test: Proliferation of primary myoblasts over five days; format: cell-based; conditions: 3 h exposure; various concentrations; over 5 days
# Experimental: The proliferation of primary myoblasts following a 3 h exposure to various concentrations of Wnt7a was analyzed to control for the effect being due to changes in the cell cycle status of the transplanted cells.
# [7] = tested on: mdx mice; test: Transplantation of Wnt-treated mouse primary myoblasts into mdx mice; format: in vivo; conditions: 100,000 mouse primary myoblasts
# Experimental: In a clinical setting, freshly isolated satellite cells are often not readily available. Therefore, the effect of 3 h Wnt7a loading on cultured primary mouse myoblasts that were subsequently transplanted into injured muscles of immunosuppressed mdx mice (FIG. S5 A) was examined. After transplantation of 100,000 cells, the number of dystrophin-expressing myofibers was increased by 72% in muscles that were injected with Wnt7a treated myoblasts (FIG. 13B). […] In addition, the mean maximal cluster distance (dispersion) increased from 1.5 mm for Veh., to 2.0 mm for Wnt7a (FIG. 13D).
# Transplantation of zsGreen-expressing satellite cells or myoblasts into mdx mice was performed as previously described (Bentzinger et al., 2013c). Before transplantation the cells were treated for 3 h with Wnt7a, Wnt5a, or Wnt3a (R&D Systems) at a concentration of 50 ng/mL for freshly isolated satellite cells or with 100 ng/mL for cultured cells. Myoblasts expressing tdTomato were transplanted into uninjured muscles of C57BL/6 mice that were implanted with an osmotic pump (Alzet) delivering FK506 (Sigma) at 2.5 mg/kg/day 3 days prior to the transplantations. In some experiments, the injection site was marked with blue fluorescent microspheres (2 μm, Life Technologies) that were added at a concentration of 1:100 (vol/vol) to the cell suspension. 10 μl of the cell-microsphere suspension was injected into the TA of each mouse using a Hamilton syringe.
# Muscles frozen in liquid nitrogen were cut into 12 μm cross-sections. Cross-sections and cells were either fixed with ethanol (100%) or 2% PFA for 5 min, permeabilized with 0.1% Triton/0.1 M glycine/PBS for 10 min, blocked with 5% horse serum in PBS for several hours, and incubated with specific primary antibody in blocking buffer overnight at 4° C. Samples were subsequently washed with PBS and stained with appropriate fluorescently labeled secondary antibodies for 1 h at room temperature. After washing with PBS, samples were mounted with Permafluor (Fisher). Antibodies were as follows: chicken anti-GFP (Abcam, ab13970), mouse anti-Pax7 (DSHB), mouse anti-Dystrophin (7A10, DSHB), mouse anti-Rac1 (05-389, Millipore), mouse anti-Tubulin (Sigma, T9026), rabbit anti-Dvl2 (3224, Cell Signaling), rabbit anti-zsGreen (Clontech, 632474), rabbit anti-Laminin (Sigma, L9393), rabbit anti-HA (Millipore, 07-221).
# [8] = tested on: human primary myoblasts; test: Scratch migration assay, human primary myoblasts; format: cell-based
# Experimental: The translational relevance of Wnt7a treatment was examined in human primary myoblasts.
# as §2
molecule,measurement,setting,value
B1,increase in cell migration,[1],443%
same,dose dependency of myoblast migration,"[2]; different concentrations tested, mouse primary myoblasts",relatively linear increases in cell migration
same,response of cell migration to Wnt7a in Fzd7 knockout myoblasts,[2]; primary myoblasts from Fzd7−/− mice,do not respond; also recorded: no reaction
same,increase in cell migration,"[2]; satellite cell derived mouse primary myoblasts, Wnt 100 ng/mL, vs Veh. or empty vector",136%
same,activation of Rac1,[3],significantly increased the activation of Rac1
same,Rac1 association with Dvl2,[4],increased Rac1 association with Dvl2
same,subcellular distribution of Fzd7-YFP,[5],decreases the abundance of peripheral Fzd7-YFP; also recorded: higher abundance of large intracellular aggregates and reduced peripheral Fzd7-YFP
same,rate of proliferation of primary myoblasts,[6],No change in the rate of proliferation
same,increase in number of dystrophin-expressing myofibers,"[7]; 3 h loading (100 ng/mL), immunosuppressed mdx mice",72%
same,hypertrophy of dystrophin-expressing myofibers,"[7]; 3 h loading, mdx mice",87%
same,mean maximal cluster distance (dispersion),"[7]; 3 h loading, mdx mice",2.0 mm
same,human myoblast migration,[8],significantly increases cell migration; also recorded: significantly increased human myoblast migration
